# Data reported in patent US20110256140A1 (POMONA RICERCA S R L, published 2011).
# Experiments:
# Assay in all cases: binding of Fab e20 to H77 E1E2 alanine mutants; method not stated
# [1] = biological target: H77 E1E2 mutant G530A (Hepatitis C virus genotype 1a, H77) (UniProt P27958)
# [2] = biological target: H77 E1E2 mutant I413A (Hepatitis C virus genotype 1a, H77) (UniProt P27958)
# [3] = biological target: H77 E1E2 mutant Y486A (Hepatitis C virus genotype 1a, H77) (UniProt P27958)
# [4] = biological target: H77 E1E2 mutant T414A (Hepatitis C virus genotype 1a, H77) (UniProt P27958)
# H77 E1E2 mutant Y527A = biological target: T1, H77 E1E2 mutant Y527A (Hepatitis C virus genotype 1a, H77, UniProt P27958 384-746)
# T1 construct: Co-expressed with E1; P27958 is the whole polyprotein
# H77 E1E2 mutant S419A = biological target: T2, H77 E1E2 mutant S419A (Hepatitis C virus genotype 1a, H77, UniProt P27958 384-746)
# T2 construct: Co-expressed with E1; P27958 is the whole polyprotein
# H77 E1E2 mutant P484A = biological target: T3, H77 E1E2 mutant P484A (Hepatitis C virus genotype 1a, H77, UniProt P27958 384-746)
# T3 construct: Co-expressed with E1; P27958 is the whole polyprotein
# H77 E1E2 mutant T416A = biological target: T4, H77 E1E2 mutant T416A (Hepatitis C virus genotype 1a, H77, UniProt P27958 384-746)
# T4 construct: Co-expressed with E1; P27958 is the whole polyprotein
# H77 E1E2 mutant I422A = biological target: T5, H77 E1E2 mutant I422A (Hepatitis C virus genotype 1a, H77, UniProt P27958 384-746)
# T5 construct: Co-expressed with E1; P27958 is the whole polyprotein
# H77 E1E2 mutant N423A = biological target: T6, H77 E1E2 mutant N423A (Hepatitis C virus genotype 1a, H77, UniProt P27958 384-746)
# T6 construct: Co-expressed with E1; P27958 is the whole polyprotein
# H77 E1E2 mutant G418A = biological target: T7, H77 E1E2 mutant G418A (Hepatitis C virus genotype 1a, H77, UniProt P27958 384-746)
# T7 construct: Co-expressed with E1; P27958 is the whole polyprotein
# H77 E1E2 mutant G547A = biological target: T8, H77 E1E2 mutant G547A (Hepatitis C virus genotype 1a, H77, UniProt P27958 384-746)
# T8 construct: Co-expressed with E1; P27958 is the whole polyprotein
# H77 E1E2 mutant P544A = biological target: T9, H77 E1E2 mutant P544A (Hepatitis C virus genotype 1a, H77, UniProt P27958 384-746)
# T9 construct: Co-expressed with E1; P27958 is the whole polyprotein
# H77 E1E2 mutant R543A = biological target: T10, H77 E1E2 mutant R543A (Hepatitis C virus genotype 1a, H77, UniProt P27958 384-746)
# T10 construct: Co-expressed with E1; P27958 is the whole polyprotein
# H77 E1E2 mutant N540A = biological target: T11, H77 E1E2 mutant N540A (Hepatitis C virus genotype 1a, H77, UniProt P27958 384-746)
# T11 construct: Co-expressed with E1; P27958 is the whole polyprotein
# H77 E1E2 mutant R483A = biological target: T12, H77 E1E2 mutant R483A (Hepatitis C virus genotype 1a, H77, UniProt P27958 384-746)
# T12 construct: Co-expressed with E1; P27958 is the whole polyprotein
# H77 E1E2 mutant D535A = biological target: T13, H77 E1E2 mutant D535A (Hepatitis C virus genotype 1a, H77, UniProt P27958 384-746)
# T13 construct: Co-expressed with E1; P27958 is the whole polyprotein
# H77 E1E2 mutant W549A = biological target: T14, H77 E1E2 mutant W549A (Hepatitis C virus genotype 1a, H77, UniProt P27958 384-746)
# T14 construct: Co-expressed with E1; P27958 is the whole polyprotein
# H77 E1E2 mutant T534A = biological target: T15, H77 E1E2 mutant T534A (Hepatitis C virus genotype 1a, H77, UniProt P27958 384-746)
# T15 construct: Co-expressed with E1; P27958 is the whole polyprotein
# H77 E1E2 mutant N532A = biological target: T16, H77 E1E2 mutant N532A (Hepatitis C virus genotype 1a, H77, UniProt P27958 384-746)
# T16 construct: Co-expressed with E1; P27958 is the whole polyprotein
# H77 E1E2 mutant H421A = biological target: T17, H77 E1E2 mutant H421A (Hepatitis C virus genotype 1a, H77, UniProt P27958 384-746)
# T17 construct: Co-expressed with E1; P27958 is the whole polyprotein
# H77 E1E2 mutant D533A = biological target: T18, H77 E1E2 mutant D533A (Hepatitis C virus genotype 1a, H77, UniProt P27958 384-746)
# T18 construct: Co-expressed with E1; P27958 is the whole polyprotein
# H77 E1E2 mutant N417A = biological target: T19, H77 E1E2 mutant N417A (Hepatitis C virus genotype 1a, H77, UniProt P27958 384-746)
# T19 construct: Co-expressed with E1; P27958 is the whole polyprotein
# H77 E1E2 mutant Q412A = biological target: T20, H77 E1E2 mutant Q412A (Hepatitis C virus genotype 1a, H77, UniProt P27958 384-746)
# T20 construct: Co-expressed with E1; P27958 is the whole polyprotein
# H77 E1E2 mutant F550A = biological target: T21, H77 E1E2 mutant F550A (Hepatitis C virus genotype 1a, H77, UniProt P27958 384-746)
# T21 construct: Co-expressed with E1; P27958 is the whole polyprotein
# H77 E1E2 mutant N415A = biological target: T22, H77 E1E2 mutant N415A (Hepatitis C virus genotype 1a, H77, UniProt P27958 384-746)
# T22 construct: Co-expressed with E1; P27958 is the whole polyprotein
# H77 E1E2 mutant H488A = biological target: T23, H77 E1E2 mutant H488A (Hepatitis C virus genotype 1a, H77, UniProt P27958 384-746)
# T23 construct: Co-expressed with E1; P27958 is the whole polyprotein
# H77 E1E2 mutant W420A = biological target: T24, H77 E1E2 mutant W420A (Hepatitis C virus genotype 1a, H77, UniProt P27958 384-746)
# T24 construct: Co-expressed with E1; P27958 is the whole polyprotein
# H77 E1E2 mutant W487A = biological target: T25, H77 E1E2 mutant W487A (Hepatitis C virus genotype 1a, H77, UniProt P27958 384-746)
# T25 construct: Co-expressed with E1; P27958 is the whole polyprotein
# H77 E1E2 mutant P545A = biological target: T26, H77 E1E2 mutant P545A (Hepatitis C virus genotype 1a, H77, UniProt P27958 384-746)
# T26 construct: Co-expressed with E1; P27958 is the whole polyprotein
binder,measurement,setting,value
"Fab e20 (Fab, V domains shown, also called e20 antibody fragment) VH: LLEQSGAEVKKPGSSVKVSCKASGDHYGINWVRQAPGQGLEWMGGIIPVFGTTTYAQKFQGRATITADDSTGTAFLELTRLTFDDTAVYFCATPHQLHVLRGGKALSPWDYWGQGT VL: MAELTQSPATLSVSPGERATLSCRASQSVSSNLAWYQQKRGQAPSLLIYGTSTRATGIPARFSGSGSGTEFTLTISSLQSEDFAVYYCQQYNDWPSTFGQGT",e20 binding activity (% of wild-type H77) (% of wild-type H77),[1],3
same,e20 binding activity (% of wild-type H77) (% of wild-type H77),[2],100
same,e20 binding activity (% of wild-type H77) (% of wild-type H77),[3],95
same,e20 binding activity (% of wild-type H77) (% of wild-type H77),[4],95
same,e20 binding activity (% of wild-type H77),H77 E1E2 mutant Y527A,92 % of wild-type H77
same,e20 binding activity (% of wild-type H77),H77 E1E2 mutant S419A,100 % of wild-type H77
same,e20 binding activity (% of wild-type H77),H77 E1E2 mutant P484A,100 % of wild-type H77
same,e20 binding activity (% of wild-type H77),H77 E1E2 mutant T416A,96 % of wild-type H77
same,e20 binding activity (% of wild-type H77),H77 E1E2 mutant I422A,100 % of wild-type H77
same,e20 binding activity (% of wild-type H77),H77 E1E2 mutant N423A,100 % of wild-type H77
same,e20 binding activity (% of wild-type H77),H77 E1E2 mutant G418A,100 % of wild-type H77
same,e20 binding activity (% of wild-type H77),H77 E1E2 mutant G547A,98 % of wild-type H77
same,e20 binding activity (% of wild-type H77),H77 E1E2 mutant P544A,72 % of wild-type H77
same,e20 binding activity (% of wild-type H77),H77 E1E2 mutant R543A,68 % of wild-type H77
same,e20 binding activity (% of wild-type H77),H77 E1E2 mutant N540A,70 % of wild-type H77
same,e20 binding activity (% of wild-type H77),H77 E1E2 mutant R483A,100 % of wild-type H77
same,e20 binding activity (% of wild-type H77),H77 E1E2 mutant D535A,10 % of wild-type H77
same,e20 binding activity (% of wild-type H77),H77 E1E2 mutant W549A,96 % of wild-type H77
same,e20 binding activity (% of wild-type H77),H77 E1E2 mutant T534A,100 % of wild-type H77
same,e20 binding activity (% of wild-type H77),H77 E1E2 mutant N532A,100 % of wild-type H77
same,e20 binding activity (% of wild-type H77),H77 E1E2 mutant H421A,100 % of wild-type H77
same,e20 binding activity (% of wild-type H77),H77 E1E2 mutant D533A,100 % of wild-type H77
same,e20 binding activity (% of wild-type H77),H77 E1E2 mutant N417A,97 % of wild-type H77
same,e20 binding activity (% of wild-type H77),H77 E1E2 mutant Q412A,100 % of wild-type H77
same,e20 binding activity (% of wild-type H77),H77 E1E2 mutant F550A,94 % of wild-type H77
same,e20 binding activity (% of wild-type H77),H77 E1E2 mutant N415A,98 % of wild-type H77
same,e20 binding activity (% of wild-type H77),H77 E1E2 mutant H488A,100 % of wild-type H77
same,e20 binding activity (% of wild-type H77),H77 E1E2 mutant W420A,97 % of wild-type H77
same,e20 binding activity (% of wild-type H77),H77 E1E2 mutant W487A,100 % of wild-type H77
same,e20 binding activity (% of wild-type H77),H77 E1E2 mutant P545A,97 % of wild-type H77
